Blank lines part the entries; values can stand above or below the binder they belong to.
Molecular target: T1, CFP-GS27 (UniProt O14653 1-212)
T1 sequence (looked up): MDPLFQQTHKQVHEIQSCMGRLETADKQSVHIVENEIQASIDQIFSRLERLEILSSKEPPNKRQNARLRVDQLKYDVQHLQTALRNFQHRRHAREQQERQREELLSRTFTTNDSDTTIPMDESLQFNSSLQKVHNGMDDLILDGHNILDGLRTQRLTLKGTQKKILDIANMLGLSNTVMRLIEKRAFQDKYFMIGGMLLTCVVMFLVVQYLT
Experiment: co-IP

fold reduction of co-IP against full length COG6-myc: ~7 fold
B1: COG6-myc with deletion of residues 76-112 (natural protein, human, UniProt Q9Y2V7 1-657, looked up)
chain: MAEGSGEVVAVSATGAANGLNNGAGGTSATTCNPLSRKLHKILETRLDNDKEMLEALKALSTFFVENSLRTRRNLNCCQDMTSRLQAAKEQTQDLIVKTTKLQSESQKLEIRAQVADAFLSKFQLTSDEMSLLRGTREGPITEDFFKALGRVKQIHNDVKVLLRTNQQTAGLEIMEQMALLQETAYERLYRWAQSECRTLTQESCDVSPVLTQAMEALQDRPVLYKYTLDEFGTARRSTVVRGFIDALTRGGPGGTPRPIEMHSHDPLRYVGDMLAWLHQATASEKEHLEALLKHVTTQGVEENIQEVVGHITEGVCRPLKVRIEQVIVAEPGAVLLYKISNLLKFYHHTISGIVGNSATALLTTIEEMHLLSKKIFFNSLSLHASKLMDKVELPPPDLGPSSALNQTLMLLREVLASHDSSVVPLDARQADFVQVLSCVLDPLLQMCTVSASNLGTADMATFMVNSLYMMKTTLALFEFTDRRLEMLQFQIEAHLDTLINEQASYVLTRVGLSYIYNTVQQHKPEQGSLANMPNLDSVTLKAAMVQFDRYLSAPDNLLIPQLNFLLSATVKEQIVKQSTELVCRAYGEVYAAVMNPINEYKDPENILHRSPQQVQTLLS

fold reduction of co-IP against full length COG6-myc: ~7 fold
B2: COG6-myc with deletion of residues 112-150 (natural protein, human, UniProt Q9Y2V7 1-657, looked up)
chain: MAEGSGEVVAVSATGAANGLNNGAGGTSATTCNPLSRKLHKILETRLDNDKEMLEALKALSTFFVENSLRTRRNLRGDIERKSLAINEEFVSIFKEVKEELESISEDVQAMQVADAFLSKFQLTSDEMSLLRGTREGPITEDFFKALGRVKQIHNDVKVLLRTNQQTAGLEIMEQMALLQETAYERLYRWAQSECRTLTQESCDVSPVLTQAMEALQDRPVLYKYTLDEFGTARRSTVVRGFIDALTRGGPGGTPRPIEMHSHDPLRYVGDMLAWLHQATASEKEHLEALLKHVTTQGVEENIQEVVGHITEGVCRPLKVRIEQVIVAEPGAVLLYKISNLLKFYHHTISGIVGNSATALLTTIEEMHLLSKKIFFNSLSLHASKLMDKVELPPPDLGPSSALNQTLMLLREVLASHDSSVVPLDARQADFVQVLSCVLDPLLQMCTVSASNLGTADMATFMVNSLYMMKTTLALFEFTDRRLEMLQFQIEAHLDTLINEQASYVLTRVGLSYIYNTVQQHKPEQGSLANMPNLDSVTLKAAMVQFDRYLSAPDNLLIPQLNFLLSATVKEQIVKQSTELVCRAYGEVYAAVMNPINEYKDPENILHRSPQQVQTLLS

Source: paper PMC3538890 (Traffic (Copenhagen, Denmark), 2012)
